Results: patent US20060205646

Molecular target: T1, Heat gamma
T1 chain: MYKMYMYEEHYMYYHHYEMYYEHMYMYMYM

B1: activated recombinant MMP2 (protein)
chain: YNFFPRKPKWDKNQITYRIIGYTPDLDPETVDDAFARAFQVWSDVTPLRFSRIHDGEADIMINFGRWEHGDGYPFDGKDGLLAHAFAPGTGVGGDSHFDDDELWTLGEGQVVRVKYGNADGEYCKFPFLFNGKEYNSCTDTGRSDGFLWCSTTYNFEKDGKYGFCPHEALFTMGGNAEGQPCKFPFRFQGTSYDSCTTEGRTDGYRWCGTTEDYDRDKKYGFCPETAMSTVGGNSEGAPCVFPFTFLGNKYESCTSAGRSDGKMWCATTANYDDDRKWGFCPDQGYSLFLVAAHEFGHAMGLEHSQDPGALMAPIYTYTKNFRLSQDDIKGIQELYGASPDIDLGTGPTPTLGPVTPEICKQDIVFDGIAQIRGEIFFFKDRFIWRTVTPRDKPMGPLLVATFWPELPEKIDAVYEAPQEEKAVFFAGNEYWIYSASTLERGYPKPLTSLGLPPDVQRVDAAFNWSKNKKTYIFAGDKFWRYNEVKKKMDPGFPKLIADAWNAIPDNLDAVVDLQGGGHSYFFKGAYYLKLENQSLKSVKFGSIKSDWLGC
cleavage of Fluorogenic Peptide substrate I by 0.2 µg activated recombinant MMP2, 60 µg Heat Gamma: Heat gamma efficiently inhibits the MMP2 activity as indicated by a decrease in relative fluorescence

B2: activated recombinant MMP1 (protein)
chain: FVLTEGNPRWEQTHLTYRIENYTPDLPRADVDHAIEKAFQLWSNVTPLTFTKVSEGQADIMISFVRGDHRDNSPFDGPGGNLAHAFQPGPGIGGDAHFDEDERWTNNFREYNLHRVAAHELGHSLGLSHSTDIGALMYPSYTFSGDVQLAQDDIDGIQAIYGRSQNPVQPIGPQTPKACDSKLTFDAITTIRGEVMFFKDRFYMRTNPFYPEVELNFISVFWPQLPNGLEAAYEFADRDEVRFFKGNKYWAVQGQNVLHGYPKDIYSSFGFPRTVKHIDAALSEENTGKTYFFVANKYWRYDEYKRSMDPGYPKMIAHDFPGIGHKVDAVFMKDGFFYFFHGTRQYKFDPKTKRILTLQKANSWFNCRKN
cleavage of Fluorogenic Peptide substrate I by 0.2 µg activated recombinant MMP1, 60 µg Heat Gamma: Heat gamma efficiently inhibits the MMP1 activity as indicated by a decrease in relative fluorescence
